Reference: the nanobody polyreactivity screen of Harvey et al. (2022)

Assay: yeast display, Sf9 membrane polyspecificity reagent, FACS + sequencing; frameworks hold sequencing errors
Procedure, shortened: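 After 36–48 hours of galactose induction, yeast (Saccharomyces cerevisiae BJ5465) displaying a synthetic nanobody library were stained at 4 °C for 1 hour with 10% biotinylated, detergent-solubilized Sf9 membrane reagent. Streptavidin microbeads enriched the stained cells before FACS sorting into low and high (top ~1%) gates on anti-HA and streptavidin fluorescence. Each clone's polyreactivity label reflects its gate of origin.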

Sequence | polyreactivity (PSR sort gate)
QVQLVESGGGLVQAGGSLRLSCAASGRTFNIYAMGWYRQAPGKERELVAAISSGGSTYYADSVKGRFTISRDNAKNTVYLQMNSLKPEDTAVYYCAAVEFELRGDYWGQGTQVTVSS | low polyreactivity
QVQLVESGGGLVQAGGSLRLSCAASGRTFNKYAMGWYRQAPGKERELVAAITGSGGSTYYADSVKGRFTISRDNAKNTVYLEMNSLKPEDTAVYYCAAYAYGVWHSQDGGNYWGQGTQVTVSS | low polyreactivity
QVQLVESGGGLVQAGGSLRLSCAASGRTFNRNAMGWYRQAPGKERELVAAISWSGGRTYYADSVKGRFTISRDTAKNTVYLQMNSLKPEDTAVYYCAAPGKKYWGQGTQVTVSS | high polyreactivity
QVQLVESGGGLVQAGGSLRLSCAASGRTFNRYAMGWYRQAPGKERELVAAINSVGSTYYADSVKGRFTISRDNAKNTVYLQMNSLKPEDTAVYYCNAVQGSRFGYWGQGTQVTVSS | high polyreactivity
QVQLVESGGGLVQAGGSLRLSCAASGRTFNSNAMGWYRQAPGKERELVAAITRSGGSTYYADSVKGRFTISRDNAKNTVYLQMNSLKPEDTAVYYCNKTRWTQRTSFDYWGQGTQVTVSS | low polyreactivity
QVQLVESGGGLVQAGGSLRLSCAASGRTFNWYAMGWYRQAPGKERELVAAIRVNGGITYYADSVKGRFTISRDNAKNTVYLQMISLKPEDTAVYYCAVYSRQGLGYWGQGTQVTVSS | high polyreactivity
QVQLVESGGGLVQAGGSLRLSCAASGRTFNYNAMGWYRQAPGKERELVAAINYNGGSTYYADSVKGRFTISRDNAKNTVYVQMNSLKPEDTAVYYCAADYNEYDWGQGTQVTVSS | low polyreactivity
QVQLVESGGGLVQAGGSLRLSCAASGRTFNYYAMGWYRQAPGKERELVAAISWSGTPTYYADSVKGRFTISRDHAKNTVYLQMNSLKPEDTAVYYCAAYLVSYPRGNYIRYDYWGQGTQVTVSS | low polyreactivity
QVQLVESGGGLVQAGGSLRLSCAASGRTFNYYAMGWYRQAPGKERESVAAISWRGGSTYYADSVKGRFTISRDNAKNTVYLQMNSLKPEDTAVYYCNKYFSWRPYSYYYWGQGTQVTVSS | high polyreactivity
QVQLVESGGGLVQAGGSLRLSCAASGRTFNYYPMGWYRQAPGKERELVAAISRSGTPTYYADSVKGRFTISRDNAKNTVYLQMNSLKPEDTAVYYCAAYLVSYPRGNYIRYDYWGQGTQVTVSS | low polyreactivity
QVQLVESGGGLVQAGGSLRLSCAASGRTFNYYTMGWNRQAPGKEREFVAAITISGARTYYADSVKGRFTISRDNAKNTVYLQMNSLKPEDTAVYYCAARRRYRSRVTPVGYNYWGQGTQVTVSS | high polyreactivity
QVQLVESGGGLVQAGGSLRLSCAASGRTFPENAKGWYTQAPGKEREFVAVISSGGGSTTYADSVKGRFTISRDNAKNTVYLQMNSLKPEDTAVYYCATEYYFHGYWITYSWGQGTQVTVSS | low polyreactivity
QVQLVESGGGLVQAGGSLRLSCAASGRTFPENTMGWYRQAPAKERELVAAISSTTSTNYADSVKGRFTISRDNAKNTVYLQMNSLKPEDTAVYFWADDFWEYDGPWYANDYESWGLGTQVTVSS | low polyreactivity
QVQLVESGGGLVQAGGSLRLSCAASGRTFPFYAMGWYRPAPGTERELVASIRGGGGTNYADSVKGRFTISRDNAKNTVYLQMNSLKPEDTAVYYCAARGYGYRGYYYWGQGTQVTVSS | high polyreactivity
QVQLVESGGGLVQAGGSLRLSCAASGRTFPGNAMGWYRQAPGKERELVAAISYSGGRTYYSDSVKGRFTISRDNAKNTVYLQMNRLKPEDTAVYYCAKSIVQPSVAAYYYWGQGTQVTVSS | high polyreactivity
QVQLVESGGGLVQAGGSLRLSCAASGRTFPGNAMGWYRQAPGKERELVAAITRVGSTYYADSVKGRFTISRDNAKNTVYLQMNSLKPEDTAVYYCAADRLEGYYEDDATGFDYWRQGTQVTVSS | low polyreactivity
QVQLVESGGGLVQAGGSLRLSCAASGRTFPGYGMGWYRQAPGKERELVAVITSNGGITYYADSVKGRFTISRDNAKNTVYLQMNSLKPEDTAVYYCAAYEIYYEFDSWGQGTQVTVSS | low polyreactivity
QVQLVESGGGLVQAGGSLRLSCAASGRTFPLNAMGWYRQAPGKERELVAAITWSGGRTYYADSVKGRFTISRDNAKNTVYLQMNSLKPEDTAVYYCATDRYAYKLYDYWGQGTQVTVSS | low polyreactivity
QVQLVESGGGLVQAGGSLRLSCAASGRTFPLYGMGWYRQAPGKERELVATISRSGGSTYYADSVKGRFTISRDNAKNTVYLQMNSLKPEDTAVYYCIADRHYVPYYSRPRYIPYDYWGQGTQVTVSS | high polyreactivity
QVQLVESGGGLVQAGGSLRLSCAASGRTFPNYAMGWYRQAPGKERELVAAISYSGGTTYYADSVKGRFTISRDNAKNTVYLQMNSLKPEDTAVYDCNALRLGYGLFHYDYWGQGTQVTVSS | low polyreactivity
QVQLVESGGGLVQAGGSLRLSCAASGRTFPPTAMGGYRLAPGKEWELVAAISPSGASTYYADSVKGRFTISRDNAKNTVYLQMNSLKPEDTAVYYCAARRFIASPRYKYDYWGQGTQVTVSS | high polyreactivity

Sequence | polyreactivity (PSR sort gate)
QVQLVESGGGLVQAGGSLRLSCAASGRTFPPYAMGWYRQAPGKERELVAAISGSGASTYYADSVKGRFTISRDNAKNTVYLQMNSLKPEDTAVYYCARYRGYWGRYYGVDYGYWGQGTQVTVSS | high polyreactivity
QVQLVESGGGLVQAGGSLRLSCAASGRTFPRNGMGWYRQAPGKERELGAGISSAGSTNYADSVKGRFTISRDNAKNTFYLHMNSLKPEDTAVYYCNAVLRRRWVTFYYWGQGTQVTVSS | high polyreactivity
QVQLVESGGGLVQAGGSLRLSCAASGRTFPRYAMGWYRQATGKERELVAAISVRAGITYYADSVKGRFTISRDNAKNTVYLQMNSLKPEDTAVYYCAKDHWTTSYDEGDYWGQGTQVTVSS | low polyreactivity
QVQLVESGGGLVQAGGSLRLSCAASGRTFPRYTMGWYRQAPGKERELVAASATGGSTYYADSVKGRFTISRDNAKNTVYLQMNSLKPEDTAVYYCAARPYSNRYVLGVYYWGQGTQVTVSS | high polyreactivity
QVQLVESGGGLVQAGGSLRLSCAASGRTFPSNAMGWYRQAPGKEREFVASITYSGGRTYYADSVKGRFTISRDNAKNTVYLQMNSLKPEDTAVYYCATARYRYHYYSWGQGTQVTVSS | high polyreactivity
QVQLVESGGGLVQAGGSLRLSCAASGRTFPVYAMGWYRQAPGKERELVASITGRGGSTYYADSVKGRFTISRDNAKNTVYLQMNSLKPEDTAVYYCARDWYKTYTGYYWGQGTQVTVSS | high polyreactivity
QVQLVESGGGLVQAGGSLRLSCAASGRTFPWYAMGWYRQAPGKERELVAAITYSVGSTYYADSVKGRFTISRDNAKNTVYLQMNSLKPEDTAVYYCAADSYPYRYRGKYSRLDYWGQGTQVTVSS | low polyreactivity
QVQLVESGGGLVQAGGSLRLSCAASGRTFPYNAMGWYRQAPGKERELVAAISSGGTTNYADSVKGRFTISRDNAKNTVYLQMNSLKPEDTAVYYCAADSVDSSQFRRDYWGQGTQVTVSS | low polyreactivity
QVQLVESGGGLVQAGGSLRLSCAASGRTFPYNAMGWYRQAPGKERELVAAITQSAGRTYYADSVKGRFTISRDTAKYTVYFQMNSLKPEDTAVYYCNTVTVAYGYTRLYAQYYYWGQGTQVTVSS | high polyreactivity
QVQLVESGGGLVQAGGSLRLSCAASGRTFPYNAMGWYRQAPGKERELVAAITWRGGRTYYADSVKGRFTISRDYAKNTVYLQMNSLKPEDSAVYYCATVRVSRVRPFWNVWRSNYWGQGTQVTVSS | high polyreactivity
QVQLVESGGGLVQAGGSLRLSCAASGRTFPYYAMGWYRQAPGKERELVAAIRGTAGNTYYADSVKGRFTISRDNAKNTVYLQMNSLKPEDTAVYYCAKGRPYWSPLTGYNYWGQGTQVTVSS | low polyreactivity
QVQLVESGGGLVQAGGSLRLSCAASGRTFPYYAMGWYRQAPGKERELVAAISSSGGRTYYADSVKGRFTISRDNAKNTVYLQMNSLKPEDTAVYYRNVDAWYPYQGFLVGYYYWGQGTQVTVSS | low polyreactivity
QVQLVESGGGLVQAGGSLRLSCAASGRTFPYYAMGWYRQAPGKERELVAAITTNDGDTYYADSVKGRFTISRDNAKNTVYLQMNSLKPEDTAVYYCAADSGSTSEYEYWGQGTQVTVSS | low polyreactivity
QVQLVESGGGLVQAGGSLRLSCAASGRTFPYYVMGWYRQAPGKERELVAAIRRTGGSTYYADSLKGRFTISRDNAKNTVYLQMNSLKPEDTAVYYCTKRHSILYEGGYDYWGQGTQVTVSS | low polyreactivity
QVQLVESGGGLVQAGGSLRLSCAASGRTFQFYAMGWYRKAPGKEREFVAAIDLRGGSTYYADSVKGRFTISRDNAKNRVYLQMNSLKPEDTAVYYCNATRSKFGYFYRYDYWGQGTQVTVSS | low polyreactivity
QVQLVESGGGLVQAGGSLRLSCAASGRTFQFYPMGWYRQAPGKERELVAAIDLRGGSTYYADSVKGRFTISRDNAKNTVYLQMNSLKPEDTAVYYCNADRYTGRDGEQSLDYWGQGTQVTVSS | low polyreactivity
QVQLVESGGGLVQAGGSLRLSCAASGRTFQFYVMGWYRQAPGKERELVASIRSGGSTNYADSVKGRFTISRDNAKNTVYLQMNSLKPEDTAVYYCAARVASPYYRYDYWGQGTQVTVSS | low polyreactivity
QVQLVESGGGLVQAGGSLRLSCAASGRTFQINGMGWYRQAPGKERELVAAITRSGGITYYADSVKGRFTISRDNAKNTVYLQMNSLKPEDTAVYYCNADSYAYYSWYDYWGQGTQVTVSS | low polyreactivity
QVQLVESGGGLVQAGGSLRLSCAASGRTFQLYAMGWYRQAPGKERELVAAITTRADRTYYADSVKGRFTISRDNAKNTVYLQLNSVKPEDTAVYYCAASYSRTYFREDYCGQGTQVTVSS | low polyreactivity
QVQLVESGGGLVQAGGSLRLSCAASGRTFQRNAMGWYRQAPGKERELVAAISGGGSTYYADSVKGRFTISRDNAKNTVYLQMNSLKPEDTAVYYCAARSATRLYYFSRGYDYWGQGTQVTVSS | low polyreactivity
